Results as given in patent US20080038248A1 (published 2008).

B1: NKG2D-Fc fusion protein (Fc fusion, human, UniProt P26718 73-216, looked up)
chain: IWSAVFLNSLFNQEVQIPLTESYCGPCPKNWICYKNNCYQFFDESKNWYESQASCMSQNASLLKVYSKEDQDLLKLVKSYHWMGLVHIPTNGSWQWEDGSILSPNLLTIIEMQKGDCALYASSFKGYIENCSTPNTYICMQRTV
notes: Produced in 293T cells, purified on Protein A. 'The fusion was C-terminal to human IgG1 hinge-CH2-CH3 domains'; also called recombinant soluble Fc fusion protein of NKG2D; not shown: human IgG1 hinge-CH2-CH3 domains, N-terminal to NKG2D (in pcDNA3.0)
B2: soluble recombinant extracellular domain of RAET1G, 6-Histidine N-terminal fusion (ligand, human)
chain: HHHHHHGLADPHSLCYDITVIPKFRPGPRWCAVQGQVDEKTFLHYDCGSKTVTPVSPLGKKLNVTTAWKAQNPVLREVVDILTEQLLDIQLENYIPKEPLTLQARMSCEQKAEGHGSGSWQLSFDGQIFLLFDSENRMWTTVHPGARKMKEKWENDKDMTMSFHYISMGDCTGWLEDFLMGMDSTLEPSAGAPPTMSSGTAQPR
notes: extracellular domain; also called 6-His tagged recombinant RAET1G
B3: UL16 Fc fusion (Fc fusion)
chain: VDLGSKSSNSTCRLNVTELASIHPGETWTLHGMCISICYYENVTEDEIIGVAFTWQHNESVVDLWLYQNDTVIRNFSDITTNILQDGLKMRTVPVTKLYTSRMVTNLTVGRYDCLRCENGTTKIIERLYVRLGSLYPRPPGSGLAKHPSVSADEELSA
notes: not shown: human IgG1 CH2-CH3, C-terminal to UL16 (vector SignalpIgplus)

Columns and labels:
[1] = target: T1, soluble recombinant extracellular domain of RAET1E, 6-Histidine N-terminal fusion (human, UniProt Q8TD07 31-225); experiment: SPR (BIACore 2000), NKG2D-Fc captured on anti-human IgG, RAET1E as analyte; derived from joint fit
T1 construct: extracellular domain
T1 sequence: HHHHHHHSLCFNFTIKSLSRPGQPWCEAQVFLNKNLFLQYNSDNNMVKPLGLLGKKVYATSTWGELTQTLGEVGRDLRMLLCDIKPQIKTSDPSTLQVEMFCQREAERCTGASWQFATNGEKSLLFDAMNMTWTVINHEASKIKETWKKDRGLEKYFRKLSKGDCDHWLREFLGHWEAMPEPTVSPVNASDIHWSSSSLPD
Method: (§1) SPR was carried out on a BIACore2000 machine. Running buffer, sensor chips and surface coupling reagents were from BIACore. Anti Human IgG (Dako) was coupled to a CM5 surface using NHS/EDC chemistry. […] Surface regeneration was using 5 μl of 10 mM HCl. […] Kinetic analysis was performed using BIAEvaluation 3.1 software.

[2] = target: T2, soluble recombinant extracellular domain of ULBP1, 6-Histidine N-terminal fusion (human, UniProt Q9BZM6 26-216, limits assumed); experiment: SPR (BIACore 2000), NKG2D-Fc captured on anti-human IgG, ULBP1 as analyte; joint global fit
T2 construct: extracellular domain
T2 sequence: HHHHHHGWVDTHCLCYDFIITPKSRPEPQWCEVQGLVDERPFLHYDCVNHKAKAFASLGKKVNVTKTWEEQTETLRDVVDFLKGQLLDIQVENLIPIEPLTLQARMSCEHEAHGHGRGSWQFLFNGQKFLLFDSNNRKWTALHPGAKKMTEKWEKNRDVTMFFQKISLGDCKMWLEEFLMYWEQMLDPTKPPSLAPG
Method: as §1

[3] = target: T3, soluble recombinant extracellular domain of ULBP2, 6-Histidine N-terminal fusion (human, UniProt Q9BZM5 26-217, limits assumed); experiment: SPR (BIACore 2000), NKG2D-Fc captured on anti-human IgG, ULBP2 as analyte; separate off-rate fit
T3 construct: extracellular domain
T3 sequence: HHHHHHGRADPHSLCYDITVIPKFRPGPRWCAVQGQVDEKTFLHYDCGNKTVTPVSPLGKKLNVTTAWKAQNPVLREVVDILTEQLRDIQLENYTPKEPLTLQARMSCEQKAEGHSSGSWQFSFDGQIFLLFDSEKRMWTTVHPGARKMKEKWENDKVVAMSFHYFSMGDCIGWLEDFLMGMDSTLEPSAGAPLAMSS
Method: as §1

[4] = target: T4, soluble recombinant extracellular domain of ULBP3, 6-Histidine N-terminal fusion (human, UniProt Q9BZM4 30-217, limits assumed); experiment: SPR (BIACore 2000), NKG2D-Fc captured on anti-human IgG, ULBP3 as analyte; separate off-rate fit
T4 construct: extracellular domain
T4 sequence: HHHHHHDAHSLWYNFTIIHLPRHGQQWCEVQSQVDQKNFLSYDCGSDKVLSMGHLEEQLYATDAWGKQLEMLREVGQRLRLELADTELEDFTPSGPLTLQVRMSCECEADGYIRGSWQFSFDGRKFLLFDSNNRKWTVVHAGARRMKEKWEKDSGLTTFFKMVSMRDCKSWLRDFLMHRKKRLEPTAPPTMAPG
Method: as §1

[5] = target: T1, soluble recombinant extracellular …; experiment: SPR (BIACore 2000), NKG2D-Fc captured on anti-human IgG, RAET1E as analyte; joint global fit
Method: as §1

[6] = target: B2; experiment: SPR (BIACore 2000), NKG2D-Fc captured on anti-human IgG, RAET1G as analyte; derived from joint fit
Method: as §1

[7] = target: T3, soluble recombinant extracellular …; experiment: SPR (BIACore 2000), NKG2D-Fc captured on anti-human IgG, ULBP2 as analyte; joint global fit
Method: as §1

[8] = target: T4, soluble recombinant extracellular …; experiment: SPR (BIACore 2000), NKG2D-Fc captured on anti-human IgG, ULBP3 as analyte; joint global fit
Method: as §1

[9] = target: B2; experiment: SPR (BIACore 2000), NKG2D-Fc captured on anti-human IgG, RAET1G as analyte; separate off-rate fit
Method: as §1

[10] = target: B2; experiment: SPR (BIACore 2000), NKG2D-Fc captured on anti-human IgG, RAET1G as analyte; joint global fit
Method: as §1

[11] = target: T2, soluble recombinant extracellular …; experiment: SPR (BIACore 2000), NKG2D-Fc captured on anti-human IgG, ULBP1 as analyte; separate off-rate fit
Method: as §1

[12] = target: T3, soluble recombinant extracellular …; experiment: SPR (BIACore 2000), NKG2D-Fc captured on anti-human IgG, ULBP2 as analyte; derived from joint fit
Method: as §1

[13] = target: T1, soluble recombinant extracellular …; experiment: SPR (BIACore 2000), NKG2D-Fc captured on anti-human IgG, RAET1E as analyte; separate off-rate fit
Method: as §1

[14] = target: T2, soluble recombinant extracellular …; experiment: SPR (BIACore 2000), NKG2D-Fc captured on anti-human IgG, ULBP1 as analyte; derived from joint fit
Method: as §1

[15] = target: T4, soluble recombinant extracellular …; experiment: SPR (BIACore 2000), NKG2D-Fc captured on anti-human IgG, ULBP3 as analyte; derived from joint fit
Method: as §1

UL16 Fc fusion = target: B3; experiment: SPR (BIACore 2000); kon on UL16-Fc against kon on NKG2D-Fc
NKG2D-Fc fusion protein = target: B1; experiment: SPR (BIACore 2000); RAET1G against ULBP2 on NKG2D-Fc
Method: as §1

[16] = target: B2; experiment: SPR (BIACore 2000), UL16-Fc captured on anti-human IgG, RAET1G as analyte; derived from joint fit
[17] = target: T2, soluble recombinant extracellular …; experiment: SPR (BIACore 2000), UL16-Fc captured on anti-human IgG, ULBP1 as analyte; joint global fit
[18] = target: T2, soluble recombinant extracellular …; experiment: SPR (BIACore 2000), UL16-Fc captured on anti-human IgG, ULBP1 as analyte; derived from joint fit
[19] = target: T1, soluble recombinant extracellular …; experiment: SPR (BIACore 2000), UL16-Fc captured on anti-human IgG, RAET1E as analyte; derived from joint fit
[20] = target: T1, soluble recombinant extracellular …; experiment: SPR (BIACore 2000), UL16-Fc captured on anti-human IgG, RAET1E as analyte; joint global fit
[21] = target: B2; experiment: SPR (BIACore 2000), UL16-Fc captured on anti-human IgG, RAET1G as analyte; joint global fit

Binder: B1
- Kd [1]: 0.039 µM
- koff [2]: 0.0073 s⁻¹
- kon [2]: 4360 M⁻¹ s⁻¹
- koff [3]: 0.0336 s⁻¹
- koff [4]: 0.005 s⁻¹
- koff [5]: 0.00292 s⁻¹
- kon [5]: 74900 M⁻¹ s⁻¹
- Kd [6]: 0.356 µM
- koff [7]: 0.063 s⁻¹
- koff [8]: 0.00537 s⁻¹
- kon [8]: 2350 M⁻¹ s⁻¹
- koff [9]: 0.003 s⁻¹
- koff [10]: 0.00374 s⁻¹
- kon [10]: 10500 M⁻¹ s⁻¹
- koff [11]: 0.0069 s⁻¹
- Kd [12]: 7.16 µM
- koff [13]: 0.005 s⁻¹
- Kd [14]: 1.68 µM
- Kd [15]: 2.29 µM

Binder: B2
- fold faster association rate for UL16 than for NKG2D (UL16 Fc fusion): 10 fold
- fold difference in affinity against ULBP2 (NKG2D-Fc fusion protein): 20 fold

Binder: B3
- Kd [16]: 0.0756 µM
- koff [17]: 0.000597 s⁻¹
- kon [17]: 2460 M⁻¹ s⁻¹
- Kd [18]: 0.243 µM
- Kd [19]: 0.504 µM
- koff [20]: 0.00595 s⁻¹
- kon [20]: 11800 M⁻¹ s⁻¹
- koff [21]: 0.00871 s⁻¹
- kon [21]: 115000 M⁻¹ s⁻¹
